Values of other authors in paper PMC8469970.

Biological target: Galectin-1 (Homo sapiens) (UniProt P09382)

Kd: 7 µM
Substance: Galectin-1 (from UniProt P09382)
